This passage reports protein production results from a protein production outcome set (Wang et al. 2014).
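Note: failed if final PepcDB status was selected cloned or expressed and not failed if soluble or beyond.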

The nature of the data set: label from the status in PepcDB records.
On to “MKLIAIDLDGTLLNSKHQVSLENENALRQAQRDGIEVVVSTGRAHFDVMSIFEPLGIKTWVISANGAVIHDPEGRLYHHETIDKKRAYDILSWLESENYYYEVFTGSAIYTPQNGRELLDVELDRFRSANPEADLSVLKQAAEVQYSQSGFAYINSFQELFEADEPIDFYNILGFSFFKEKLEAGWKRYEHAEDLTLVSSAEHNFELSSRKASKGQALKRLAKQLNIPLEETAAVGDSLNDKSMLEAAGKGVAMGNAREDIKSIADAVTLTNDEHGVAHMMKHLL”, for which the protein production result is listed as “not failed”.
“MKLKGVDNKILSNIFSLLSVQGALYIIPLITLPYLVRTLGVENYGVFGFSLAIVSYMSLIVDYGFNITATKTGAEIRYDKNKLSKLFFEILYSKLFMFIICSLSSILFSFFVENNIFNKDIIFVLMFTVFSQVIFPIWFFQAIEELKLVATLNFISKSLSVPLIFILINDEKDLIKLAVIHAITTIIPAIYSVYYIHIRKLVFFYKPSLNSIVSQIKNGWHIFLSGISISFYSTIVTVFLGIFSGATETGYFVAADRLRKAVQGISGPISQSFYPRINSLINTNKKSAINLIKVLYKIQFIVTFILSSLLFIFSEEIVEVLYGNGFVQSIVILKVLSYVPFFVSMSNASGICVIVSFGFNRLFSKIMMFSGGVGVALSFLLINSYGAIGSGLSILISEFIIAIIMIYFVIKLKLLKQ”: the protein production result was “failed”.
Under “MKLKNILIVVDNIEESIHFYNELFGLNVISRQEGNVIMSEGLVLQDAGIWKESMQIQTIPYNNMTELYFEDNDIEGVVKKLESGRYEVRYATALTELDGGQKLVRFYDQSGNLIEVRTPWDKFVNRE” stands “failed”; under “MKLKWWQRLLPRSAFSQTVLLIGCLLLINQLVSYVTVAVYVLKPSYQQINQLIARQINLLFVDGIDIGREHLTIVDALNAKVRDDGMKVYNQQQAREAGIEQATYYGFWSSQMTEYLGGDAEVRVTHGRVLQVWIRPPQAPSVWIKVPLIGQNVSDLSPLTLYLMVIGALSVAGGWWFARQQNRPLRRLQKAAISVSRGEFPDPLPLKGSSELVEVTNAFNQMAHSMKQLEQDRALLMAGISHDLRTPLTRIRLASEMMVEDDQYLKDGIVNDIEDMDAIISQFIAYIRQDQEASREPGQINKLIQDIAQAEANRDGEIELALADCPEALFQGLAIKRVLSNLVENAFRYGSGWVRISSQFDGKRIGFSVEDNGPGIDESQIPTLFQPFTQGDIARGSVGSGLGLAIIKRIIDRHQGQITLSNRAAGGLKAQVWLPRE”, “failed”.
The same measure for “MKLLIISDGHGDLEKLKKIKPVADGVDALIFGGDFAAFKKIETGAPFLNELLKIHKNIFAVLGNCDEPEFEKKLKDASVSITGEVKNFEGLIFAGSGGGSKFTGTTPYERTDEELVKDLTDAFEKANITAAGNLVLVCHNPPHGAKVDKVAPMVHVGSKGITAFIEKHKPLLVVSGHIHESFAVDKIGETVLVNPGALMEGRYALAEITKNEKGFKVSVELKTLD”: “failed”; for “MKLPRFGVEEWLNVHENSAIYDIAGVSISSLTLEELFALSGTNPEDFYKKLQGTKLNYGWIEGSPAFKKSVSQLYTGVKPEQILQTNGATGANLLVLYSLIEPGDHVISLYPTYQQLYDIPKSLGAEVDLWQIEEENGWLPDLEKLRQLIRPTTKMICINNANNPTGAVMDRTYLEELVEIASEVGAYILSDEVYRSFSELDVPSIIEVYDKGIAVNSLSKTYSLPGIRIGWVAANHQVTDILRDYRDYTMICAGVFDDLVAQLALAHYQEILERNRHILEENLAILDQWIEEEPLVSYIRPAVVSTSFVKIAVDMPMEDFCLQLLQEHGVLLVPGNRFERDGYVRLGFACEQETLIKGLEKLSQFLRRFDKEN”: “not failed”; for “MKLPRLWPTALSLLCSLALAQAPASPGTTAQGPAPAAVAGLAALPGGTRLVCAGTSLWTLSTSAAPQRLPLPEDCQGLRVSPSGKVVLVSGRASVTVWRLDAEQQSDGQLWRRVALPEPARRVAFLNDSTLLLAGARGLEQLDLNTQARTLLRPGAVTGLATAPDGRRAVMGDGSRVQLVNVADGAVLSGVRCEVACPLQDVQFSRDQRGAVVQAGPVLYALREGHPATAVLRGAEGAMGFPLPDGGVWVLTAGRLERRDAQTGRREGVLRPEGVSGPAAWTPEGGLLYVAGRELVELDKTGQEVGRTALP”: “failed”.
As for “MKLRSWEFYDRIARAYDSMYETPKWKLYHRLIGSFLEEYLKNPCRVLDLGGGTGKWSLFLQERGFEVVLVDPSKEMLEVAREKGVKNVVEAKAEDLPFPSGAFEAVLALGDVLSYVENKDKAFSEIRRVLVPDGLLIATVDNFYTFLQQMIEKDAWDQITRFLKTQTTSVGTTLFSFNSYAFKPEDLDSLEGFETVDIRGIGVMEYPDERISEREETIFRLEQELSRDRNIIWKADHIFFVLKKKRGA”, the protein production result is given as “not failed”.
Under “MKLSQQSQAIIESAIQKAINKYTCGCEQTIVTDIHIQPNQNSGELFIYDDEDEELSSVTIDEWTAYEGDDFCEDAERIFRTVLCRMKENGSFDKLTILKPYSFVLVDEDKETISELLLVDDDTLLVNDELLKGLDKELDDFLKDLLEKLEHHHHHH” stands “not failed”.
Under “MKLVICIVQDDDAGELIDVLTDKGLRVTKLATTGGFLKAGNTTLMIGVEEKAVDGVIETIEDVCKTRQQVVTSPSPVAGSTGVYVPYPIDVEVGGATIFVVDVDKFIKI” stands “failed”; under “MKMEELFKKHKIVAVLRANSVEEAKEKALAVFEGGVHLIEITFTVPDADTVIKELSFLKEKGAIIGAGTVTSVEQCRKAVESGAEFIVSPHLDEEISQFCKEKGVFYMPGVMTPTELVKAMKLGHTILKLFPGEVVGPQFVKAMKGPFPNVKFVPTGGVNLDNVCEWFKAGVLAVGVGSALVKGTPDEVREKAKAFVEKIRGCTE”, “not failed”; under “MKMGMVFVFVLLTVFMAVMSSTRVSAQSNCKNELKKSLKPCFSYLTSSYPSLPDDSDCCPSLLDISKTSVDCFCQYLNSGGSILDINANFIQARRLPEICGVDPYLASVCNEGKNFLTSIYEETPIL”, “failed”.
On to “MKMKHAFGPIILACVLFFIIILIPSKSLVSLISDKKVEDAATSLQKEKLQSVFLQQKMLENSQYLPMYGSSEFLRMDAYHPSNYFKVNPAGFTPFLIGTGGTQSLAHILNMTSTMDELEGKKVVFVLSPQWFTKTGVSQGDFTNNFSKQQAYHFIFNDKINPEMKKQIAKRLLDYKVVQEDDILKNSLEGIVYNDSKHNIKAGLVKPLAYMHRNILDHRDLFNSLFKIEPMKEKTNIGLRSISWEDARKHAEQEGKAESTTNTFGIENPYYHKNNLKKKLKGLKNFRANETYDESPEYDDLQIILELFKEKNVKPLFISVPVNGPWYDYTGFPKERREVYYKKVREQVEKAGYPVIDFSGHEYDKYFLKDTIHLGWKGWIYFDEAVQKFYSEKLEHHHHHH”, for which the protein production entry is “not failed”.
Under “MKMKLLILAVLPFLTPINMNSQEEKASWVQYVNPLIGTEVWQSGVAVAGHEDPSGYTFPGVTEPFGMTEWTAHTLESKHAGTLHHRVPYWYKHNYISGFMGTHYPSGAVMFDYGAVELMPVVGQLKCRPEERSSSFTHITEKSKPHFYEVMLDDYQVKAQLSATKTSAILQFTYPQSDSAYVVVDAMPSMFTAGAPGYIHIDPVRKEISGKSIQSARGYRETGYFVVRFDKDFDSFGTFNLNNDYPEVIEEKYLFTQKEGKWVNGLKGIYTQDSKGVGHLRSEKIDPVIDFDWDWYKPADDFSFNDYQVTWSGKLKAPSTGEYTLGIQADDGARLYINGELLIDDWKSHSFSYQPTQKKISLEAGKMYDIKLEYYQHEWSSRIKLSWIRPDKKSSTSLLTGNRHLESSTKIGGYIRFKTGKNEVIKAIVGTSFISVEQARINLEREIGAKSMETISAQTEALWNKELSVIDLPGATEQDKIVFYTALYHSFLLPRSLSEDGKYRSPFDGKVHKGISFTDYSIWDTFRATHPLFVLLKPDFAGDLITGLLHAYDEGGWLPKWPNPGYTNCMMGTHSDAIIADAYVKGVRNFDVEKAKKAVLKNAYEKGNHIAWGRLGIMDYERLGYVPVDKYGESVARTMEFAYDDYCLSRFFAEKGEPDLSDKLGKRSKNFRNVLDKETKMVRARKADGSWSNPEDYDISVWSGFNPKGVYNYKKNYTLFVPHDVPELIRFLGGTDSLAVFMDELFDKDIYYVGDEFVMHAPYMYNLCKRPWMTQKRIYDIVNKYYLPTPSGLPGNDDCGQLSSWYIFSAMGFYPMCPASIEYQLGVPCLPGFVLHLPQNRTFTIKTKNFGKGNCYVRAVYLNGKPHRSSVITHSDIINGGEILFELTDKPAYNWFQ” stands “failed”; under “MKMKYDPGETWRSIYRENKRCDGFNNYYDDESASYQFSENPYVWKDGKERCRTIGMQNDWTALDIGAGAGSMTVPLAKICKRVTAVEPSKTMARILSSNLKKAGLDNVQIINSRWEDAPEEIERHDIIIAAYSLMIDDIEKAVLRMNSLARKKVYLYWFAGVPYWERHCLDLWSTIYGYEYTPSPKVDLIFAVLYKHGIYPDVVNLDSERPPYERVMTTEQAMDELKDSLHLKGNDEWDELLMRYIEDNYEKKEDGCWSRGGSSRMRISWSPQP”, “failed”; under “MKMVLFSFLLGCCSLLVSAQQPVDYVNPFIGTSNYGTTNPGAICPQGMMSVTPFNVMGSKSNKFDKDSQWWSTPYSADNNFFTGYAHVNLSGVGCPEMGSLLLMPTSGELNVDYHAYGSEYKNEVAHPGYYSNILTKYDIKTEATASMRTGLTRFTFPKGQGNILLNLGEGLTNETGATVRMVSDTEIEGSKLLGTFCYNPQAVFPIYFVMKLSKAPKQAGYWKKQREMKGVEAEWDAYSGKYKLYTKYDREMSGDDIGVWFKYDTEEDEVIEVKMGVSFVSIENARLNMNTEQPDFNFDKVRAAAGKMWNDDLSRVMVEGGTNDDKTIFYTAIYHLLIHPNIIQDVNGEYPMMESLKVGHTTGNRYTVFSLWDTYRNVSTLMTLLYPEKQLDIIRTMIDMYKESGWLPKWELYGRETLTMEGDPSIPYIVDAYMRGLRDYDIETAYEGMCKGATTPGEFNLLRPDNNDYMSKGYVPLREQYDNSVSHALEYYIADWNLSLLADALGKKEDAKLFRERAMGYKHYYCKEFGTLRPILPDGTFYSPFDPKQGENFEPSPGFHEGNAWNYTFYVPHDIKGLAKLMGGQKKFVDKLQMVFDKGYYDMANEPDIAYPYLFSYFKGEAWRTQKLVCELLGKYYHNAPNGLPGNDDTGTMSTWAIFSMMGFYPACPGDLDYVVTSPTFNKVTIRLDEKFYPKGELVIESARKTPEDIYIKEVTAGGKKLKGYTISQDELVNAGTLRFTLENKH”, “failed”.
The same measure for “MKNDRKARLILSIFRYGKNHMEKETFYHKVNYGIYKILNAVFVIGFFGTELQASQSISNNIILFHPYGIVVSGEATLGDEVVIRQQVTIGNKGTGEGADDCPIIGDRVDIGAGAKIIGGITIGENSKIGANAVVTKSFPANSILVGVPARNIASKAMNGLEHHHHHH”: “not failed”.
The same measure for “MKNFSRTGKILFSYGAIQMFWGLVMLNVNVFEHTSETIKYVILITGIVFCIISNFFKEHKSHTIT”: “failed”.
With “MKNFWKKYHKWVGLFFSFFILMFCFSGIVLNHRTLFSKAEVSRNWMPESYHYKNWNNGIIKGTLRLPDGKILAYGNAGVWKTDSCFATFADFNRGLAEGIDNRKISNIVRVANNDIWCAGLYSIYLLNHDSWKEYPIAGNDERISDITQRGDTLVILTRSYLYTSVSPYDEFRKTELKTPENYSPKTSLFRTIWLLHSGELFGTPGKLAVDFLGVVLIVLSATGIIYTLLPPFIRRRHRKRLPVKTQAKALKTSLNWHNKLGTWLIGLTLLLSVTGMCLRPPLMIPFVLVNTRPVPGSTLDSDNPWHDKLRSIRWDASRNVWLLSSSMGFYRINDLQLPPVKLKQTPPVSPMGVNVFHPQSPDEWLIGSFSGLFVWNPSTGTVLDYYTGQPPAAVHGRPLGGSLVNGFTDDLVTREVIFEYDNGARNKENNLVLPAMPDLIKQQPMSLWNFCLELHVGRCYSPFLGVFSDLFVFISGLLLTLILISGYIVYKRHHKRSKKIRMH”, the protein production result is “failed”.
